Data as given in publication PMC8366996, “A novel cascade allows Metarhizium robertsii to distinguish cuticle and hemocoel microenvironments during infection of insects”.

Experiments:
COH2-DBD [1] = molecular target: T1, COH2-DBD (Metarhizium robertsii, UniProt E9F6D9 1-100); experiment: EMSA; LightShift Chemiluminescent EMSA Kit; competitor up to 300-fold excess; buffer, salt, pH and temperature not stated; settings: protein: recombinant; tags: His (pET28a); chain copies: 2; label: biotin on one strand (Bio-probe); unlabeled as Cold-probe
COH2-DBD [2] = molecular target: T1, COH2-DBD; experiment: competition; unlabeled mutant, 300-fold excess; almost completely abolished shift; LightShift Chemiluminescent EMSA Kit; competitor up to 300-fold excess; buffer, salt, pH and temperature not stated; settings: protein: recombinant; tags: His (pET28a); chain copies: 2

Binder	binding result (COH2-DBD [1])	binding result (COH2-DBD [2])
COH2-BM wild-type probe (dsDNA) DNA 1: TTCATCTGCCGAAATGTGGACGCTGACTCGGTATGCATTGCACCATCTC DNA 2: GAGATGGTGCAATGCATACCGAGTCAGCGTCCACATTTCGGCAGATGAA	binds	
7A (dsDNA) DNA 1: TTCATCTGCCGAAATGTGGACGCTGACTCAGTATGCATTGCACCATCTC DNA 2: GAGATGGTGCAATGCATACTGAGTCAGCGTCCACATTTCGGCAGATGAA		binds
